Source: PMC3101628 (Nature structural & molecular biology, 2011)
Values joined by “and” are separate entries in the source; they are usually repeats but may differ in a detail not shown here. Identical values can stand only once. Like-named read-outs stand apart in the source and are kept apart here.

Assays:
SEC [1] = target: the molecule itself; assay: SEC
SEC [2] = target: the molecule itself; assay: SEC; remark: listed apart in the source
SEC [3] = target: the molecule itself; assay: SEC; remark: listed apart in the source
SEC [4] = target: the molecule itself; assay: SEC; remark: listed apart in the source
SEC [5] = target: the molecule itself; assay: SEC; remark: listed apart in the source
SEC [6] = target: the molecule itself; assay: SEC; remark: listed apart in the source
SEC-MALS = target: the molecule itself; assay: SEC-MALS
[7] = target: the molecule itself
SEC [8] = target: the molecule itself; assay: SEC; remark: listed apart in the source

B1: hRRM1 with the first 74 residues deleted (t-hRRM1) (domain or fragment, human, UniProt P23921 75-792, looked up)
chain: AILAARIAVSNLHKETKKVFSDVMEDLYNYINPHNGKHSPMVAKSTLDIVLANKDRLNSAIIYDRDFSYNYFGFKTLERSYLLKINGKVAERPQHMLMRVSVGIHKEDIDAAIETYNLLSERWFTHASPTLFNAGTNRPQLSSCFLLSMKDDSIEGIYDTLKQCALISKSAGGIGVAVSCIRATGSYIAGTNGNSNGLVPMLRVYNNTARYVDQGGNKRPGAFAIYLEPWHLDIFEFLDLKKNTGKEEQRARDLFFALWIPDLFMKRVETNQDWSLMCPNECPGLDEVWGEEFEKLYASYEKQGRVRKVVKAQQLWYAIIESQTETGTPYMLYKDSCNRKSNQQNLGTIKCSNLCTEIVEYTSKDEVAVCNLASLALNMYVTSEHTYDFKKLAEVTKVVVRNLNKIIDINYYPVPEACLSNKRHRPIGIGVQGLADAFILMRYPFESAEAQLLNKQIFETIYYGALEASCDLAKEQGPYETYEGSPVSKGILQYDMWNVTPTDLWDWKVLKEKIAKYGIRNSLLIAPMPTASTAQILGNNESIEPYTSNIYTRRVLSGEFQIVNPHLLKDLTERGLWHEEMKNQIIACNGSIQSIPEIPDDLKQLYKTVWEISQKTVLKMAAERGAFIDQSQSLNIHIAEPNYGKLTSMHFYGWKQGLKTGMYYLRTRPAANPIQFTLNKEKLKDKEKVSKEEEEKERNTAAMVCSLENRDECLMCGS
- stoichiometry N (SEC [1]): 2

B2: human ribonucleotide reductase RR1 (hRRM1), wild type (enzyme, UniProt P23921 1-792, looked up)
chain: MHVIKRDGRQERVMFDKITSRIQKLCYGLNMDFVDPAQITMKVIQGLYSGVTTVELDTLAAETAATLTTKHPDYAILAARIAVSNLHKETKKVFSDVMEDLYNYINPHNGKHSPMVAKSTLDIVLANKDRLNSAIIYDRDFSYNYFGFKTLERSYLLKINGKVAERPQHMLMRVSVGIHKEDIDAAIETYNLLSERWFTHASPTLFNAGTNRPQLSSCFLLSMKDDSIEGIYDTLKQCALISKSAGGIGVAVSCIRATGSYIAGTNGNSNGLVPMLRVYNNTARYVDQGGNKRPGAFAIYLEPWHLDIFEFLDLKKNTGKEEQRARDLFFALWIPDLFMKRVETNQDWSLMCPNECPGLDEVWGEEFEKLYASYEKQGRVRKVVKAQQLWYAIIESQTETGTPYMLYKDSCNRKSNQQNLGTIKCSNLCTEIVEYTSKDEVAVCNLASLALNMYVTSEHTYDFKKLAEVTKVVVRNLNKIIDINYYPVPEACLSNKRHRPIGIGVQGLADAFILMRYPFESAEAQLLNKQIFETIYYGALEASCDLAKEQGPYETYEGSPVSKGILQYDMWNVTPTDLWDWKVLKEKIAKYGIRNSLLIAPMPTASTAQILGNNESIEPYTSNIYTRRVLSGEFQIVNPHLLKDLTERGLWHEEMKNQIIACNGSIQSIPEIPDDLKQLYKTVWEISQKTVLKMAAERGAFIDQSQSLNIHIAEPNYGKLTSMHFYGWKQGLKTGMYYLRTRPAANPIQFTLNKEKLKDKEKVSKEEEEKERNTAAMVCSLENRDECLMCGS
- stoichiometry N (SEC [2]): 2
- stoichiometry N (SEC [3]): 6

B3: hRRM1 D57N (enzyme, human, UniProt P23921 1-792, looked up)
chain: MHVIKRDGRQERVMFDKITSRIQKLCYGLNMDFVDPAQITMKVIQGLYSGVTTVELNTLAAETAATLTTKHPDYAILAARIAVSNLHKETKKVFSDVMEDLYNYINPHNGKHSPMVAKSTLDIVLANKDRLNSAIIYDRDFSYNYFGFKTLERSYLLKINGKVAERPQHMLMRVSVGIHKEDIDAAIETYNLLSERWFTHASPTLFNAGTNRPQLSSCFLLSMKDDSIEGIYDTLKQCALISKSAGGIGVAVSCIRATGSYIAGTNGNSNGLVPMLRVYNNTARYVDQGGNKRPGAFAIYLEPWHLDIFEFLDLKKNTGKEEQRARDLFFALWIPDLFMKRVETNQDWSLMCPNECPGLDEVWGEEFEKLYASYEKQGRVRKVVKAQQLWYAIIESQTETGTPYMLYKDSCNRKSNQQNLGTIKCSNLCTEIVEYTSKDEVAVCNLASLALNMYVTSEHTYDFKKLAEVTKVVVRNLNKIIDINYYPVPEACLSNKRHRPIGIGVQGLADAFILMRYPFESAEAQLLNKQIFETIYYGALEASCDLAKEQGPYETYEGSPVSKGILQYDMWNVTPTDLWDWKVLKEKIAKYGIRNSLLIAPMPTASTAQILGNNESIEPYTSNIYTRRVLSGEFQIVNPHLLKDLTERGLWHEEMKNQIIACNGSIQSIPEIPDDLKQLYKTVWEISQKTVLKMAAERGAFIDQSQSLNIHIAEPNYGKLTSMHFYGWKQGLKTGMYYLRTRPAANPIQFTLNKEKLKDKEKVSKEEEEKERNTAAMVCSLENRDECLMCGS
- stoichiometry N (SEC [4]): 2
- stoichiometry N (SEC [5]): 6

B4: hRRM1 D16R (enzyme, human, UniProt P23921 1-792, looked up)
chain: MHVIKRDGRQERVMFRKITSRIQKLCYGLNMDFVDPAQITMKVIQGLYSGVTTVELDTLAAETAATLTTKHPDYAILAARIAVSNLHKETKKVFSDVMEDLYNYINPHNGKHSPMVAKSTLDIVLANKDRLNSAIIYDRDFSYNYFGFKTLERSYLLKINGKVAERPQHMLMRVSVGIHKEDIDAAIETYNLLSERWFTHASPTLFNAGTNRPQLSSCFLLSMKDDSIEGIYDTLKQCALISKSAGGIGVAVSCIRATGSYIAGTNGNSNGLVPMLRVYNNTARYVDQGGNKRPGAFAIYLEPWHLDIFEFLDLKKNTGKEEQRARDLFFALWIPDLFMKRVETNQDWSLMCPNECPGLDEVWGEEFEKLYASYEKQGRVRKVVKAQQLWYAIIESQTETGTPYMLYKDSCNRKSNQQNLGTIKCSNLCTEIVEYTSKDEVAVCNLASLALNMYVTSEHTYDFKKLAEVTKVVVRNLNKIIDINYYPVPEACLSNKRHRPIGIGVQGLADAFILMRYPFESAEAQLLNKQIFETIYYGALEASCDLAKEQGPYETYEGSPVSKGILQYDMWNVTPTDLWDWKVLKEKIAKYGIRNSLLIAPMPTASTAQILGNNESIEPYTSNIYTRRVLSGEFQIVNPHLLKDLTERGLWHEEMKNQIIACNGSIQSIPEIPDDLKQLYKTVWEISQKTVLKMAAERGAFIDQSQSLNIHIAEPNYGKLTSMHFYGWKQGLKTGMYYLRTRPAANPIQFTLNKEKLKDKEKVSKEEEEKERNTAAMVCSLENRDECLMCGS
- stoichiometry N (SEC [6]): 6
- stoichiometry N (SEC-MALS): 2

B5: hRRM1 H2E (enzyme, human, UniProt P23921 1-792, looked up)
chain: MEVIKRDGRQERVMFDKITSRIQKLCYGLNMDFVDPAQITMKVIQGLYSGVTTVELDTLAAETAATLTTKHPDYAILAARIAVSNLHKETKKVFSDVMEDLYNYINPHNGKHSPMVAKSTLDIVLANKDRLNSAIIYDRDFSYNYFGFKTLERSYLLKINGKVAERPQHMLMRVSVGIHKEDIDAAIETYNLLSERWFTHASPTLFNAGTNRPQLSSCFLLSMKDDSIEGIYDTLKQCALISKSAGGIGVAVSCIRATGSYIAGTNGNSNGLVPMLRVYNNTARYVDQGGNKRPGAFAIYLEPWHLDIFEFLDLKKNTGKEEQRARDLFFALWIPDLFMKRVETNQDWSLMCPNECPGLDEVWGEEFEKLYASYEKQGRVRKVVKAQQLWYAIIESQTETGTPYMLYKDSCNRKSNQQNLGTIKCSNLCTEIVEYTSKDEVAVCNLASLALNMYVTSEHTYDFKKLAEVTKVVVRNLNKIIDINYYPVPEACLSNKRHRPIGIGVQGLADAFILMRYPFESAEAQLLNKQIFETIYYGALEASCDLAKEQGPYETYEGSPVSKGILQYDMWNVTPTDLWDWKVLKEKIAKYGIRNSLLIAPMPTASTAQILGNNESIEPYTSNIYTRRVLSGEFQIVNPHLLKDLTERGLWHEEMKNQIIACNGSIQSIPEIPDDLKQLYKTVWEISQKTVLKMAAERGAFIDQSQSLNIHIAEPNYGKLTSMHFYGWKQGLKTGMYYLRTRPAANPIQFTLNKEKLKDKEKVSKEEEEKERNTAAMVCSLENRDECLMCGS
- stoichiometry N (SEC [3]): 2 and 6

B6: ScRR1 D182R (enzyme, S. cerevisiae)
chain: MYVYKRDGRKEPVQFDKITARISRLCYGLDPKHIDAVKVTQRIISGVYEGVTTIELDNLAAETCAYMTTVHPDYATLAARIAISNLHKQTTKQFSKVVEDLYRYVNAATGKPAPMISDDVYNIVMENKDKLNSAIVYDRDFQYSYFGFKTLERSYLLRINGQVAERPQHLIMRVALGIHGRRIEAALETYNLMSLKYFTHASPTLFNAGTPKPQMSSCFLVAMKEDSIEGIYDTLKECALISKTAGGIGLHIHNIRSTGSYIAGTNGTSNGLIPMIRVFNNTARYVDQGGNKRPGAFALYLEPWHADIFDFIDIRKNHGKEEIRARDLFPALWIPDLFMKRVEENGTWTLFSPTSAPGLSDCYGDEFEALYTRYEKEGRGKTIKAQKLWYSILEAQTETGTPFVVYKDACNRKSNQKNLGVIKSSNLCCEIVEYSAPDETAVCNLASVALPAFIETSEDGKTSTYNFKKLHEIAKVVTRNLNRVIDRNYYPVEEARKSNMRHRPIALGVQGLADTFMLLRLPFDSEEARLLNIQIFETIYHASMEASCELAQKDGPYETFQGSPASQGILQFDMWDQKPYGMWDWDTLRKDIMKHGVRNSLTMAPMPTASTSQILGYNECFEPVTSNMYSRRVLSGEFQVVNPYLLRDLVDLGIWDEGMKQYLITQNGSIQGLPNVPQELKDLYKTVWEISQKTIINMAADRSVYIDQSHSLNLFLRAPTMGKLTSMHFYGWKKGLKTGMYYLRTQAASAAIQFTIDQKIADQATENVADISNLKRPSYMPSSASYAASDFVPAAVTANATIPSLDSSSEASREASPAPTGSHSLTKGMAELNVQESKVEVPEVPAPTKNEEKAAPIVDDEETEFDIYNSKVIACAIDNPEACEMCSG
- stoichiometry N [7]: 6

B7: S. cerevisiae ribonucleotide reductase RR1 (ScRR1), wild type (enzyme)
chain: MYVYKRDGRKEPVQFDKITARISRLCYGLDPKHIDAVKVTQRIISGVYEGVTTIELDNLAAETCAYMTTVHPDYATLAARIAISNLHKQTTKQFSKVVEDLYRYVNAATGKPAPMISDDVYNIVMENKDKLNSAIVYDRDFQYSYFGFKTLERSYLLRINGQVAERPQHLIMRVALGIHGRDIEAALETYNLMSLKYFTHASPTLFNAGTPKPQMSSCFLVAMKEDSIEGIYDTLKECALISKTAGGIGLHIHNIRSTGSYIAGTNGTSNGLIPMIRVFNNTARYVDQGGNKRPGAFALYLEPWHADIFDFIDIRKNHGKEEIRARDLFPALWIPDLFMKRVEENGTWTLFSPTSAPGLSDCYGDEFEALYTRYEKEGRGKTIKAQKLWYSILEAQTETGTPFVVYKDACNRKSNQKNLGVIKSSNLCCEIVEYSAPDETAVCNLASVALPAFIETSEDGKTSTYNFKKLHEIAKVVTRNLNRVIDRNYYPVEEARKSNMRHRPIALGVQGLADTFMLLRLPFDSEEARLLNIQIFETIYHASMEASCELAQKDGPYETFQGSPASQGILQFDMWDQKPYGMWDWDTLRKDIMKHGVRNSLTMAPMPTASTSQILGYNECFEPVTSNMYSRRVLSGEFQVVNPYLLRDLVDLGIWDEGMKQYLITQNGSIQGLPNVPQELKDLYKTVWEISQKTIINMAADRSVYIDQSHSLNLFLRAPTMGKLTSMHFYGWKKGLKTGMYYLRTQAASAAIQFTIDQKIADQATENVADISNLKRPSYMPSSASYAASDFVPAAVTANATIPSLDSSSEASREASPAPTGSHSLTKGMAELNVQESKVEVPEVPAPTKNEEKAAPIVDDEETEFDIYNSKVIACAIDNPEACEMCSG
- stoichiometry N (SEC [8]): 6
